Legend:
LGR8 = target: T1, LGR8 (Homo sapiens, UniProt Q8WXD0); assay: Radioligand competition binding, [125I]-INSL3, live transfected COS-7 cells; details: highest concentration 1 μM
T1 construct: Human LGR8 cDNA containing the complete coding region was PCR amplified; expressed in transfected cells
Text: (§1) FIGS. 3A-3D illustrate the characterization of various relaxin-3 chimeric polypeptides using radioligand binding assays. Different relaxin-3 chimeric polypeptides were characterized for their receptor binding properties for human recombinant GPCR135 (FIG. 3A), GPCR142 (FIG. 3B), LGR7 (FIG. 3C), or LGR8 (FIG. 3D). For GPCR135, GPCR142, and LGR7, [^125I]-relaxin-3 was used as the radioligand at a final concentration of 100 pM. Different unlabeled peptides were used in the binding assay as the competitors. For LGR8, [^125I]-INSL3 was used as the radioligand at a final concentration of 100 pM. Different unlabeled peptides including relaxin-3 chimeras at various concentrations were added to the binding assay as the competitors. Data represent mean±SEM (n=3).
Radioligand binding assays for LGR7 and LGR8 were performed using live COS-7 cells transiently transfected with LGR7 or LGR8 expression plasmids in 15-cm culture dishes using LipofectAmine (Invitrogen). Two days after transfection, the transfected cells were detached from the 15-cm culture dished using phosphate buffered saline (PBS) plus 10 mM EDTA, seeded into 96-well opaque poly-D-lysine coated culture plates and used for radioligand binding assays. For LGR7, [^125I]-relaxin-3 was used as the tracer. For LGR8, [^125I]-INSL3 (specific activity: 2200 Ci/mmol) was used as the tracer. [^125I]-labeled tracer was added in binding reactions at a final concentration of 100 pM in binding buffer containing DMEM plus 50 mM HEPES and 1% bovine serum albumin. Unlabeled relaxin-3 and relaxin-3 chimeric polypeptides were added at various concentrations to the binding assays as the competitors, as indicated (FIG. 3). The binding mixtures were incubated at room temperature for 1 hour. The unbound radioligand was removed by aspiration of the binding buffer. The cells were washed with PBS. The bound radioligand was counted in a scintillation counter (TopCount/NTX). The results were analyzed using Prism 3.0 program (Graphpad, San Diego, Calif.). The IC50 values represent the ligand concentrations that inhibit 50% of the maximum specific binding.

GPCR142 = target: T2, GPCR142 (Homo sapiens, UniProt Q8TDU9, L329S); assay: Radioligand competition binding, [125I]-relaxin-3, membranes of transfected COS-7 cells; details: for binding / affinity for GPCR142, in words: highest concentration 1 μM
T2 construct: expressed in transfected cells
T2 sequence (Q8TDU9 whole entry L329S): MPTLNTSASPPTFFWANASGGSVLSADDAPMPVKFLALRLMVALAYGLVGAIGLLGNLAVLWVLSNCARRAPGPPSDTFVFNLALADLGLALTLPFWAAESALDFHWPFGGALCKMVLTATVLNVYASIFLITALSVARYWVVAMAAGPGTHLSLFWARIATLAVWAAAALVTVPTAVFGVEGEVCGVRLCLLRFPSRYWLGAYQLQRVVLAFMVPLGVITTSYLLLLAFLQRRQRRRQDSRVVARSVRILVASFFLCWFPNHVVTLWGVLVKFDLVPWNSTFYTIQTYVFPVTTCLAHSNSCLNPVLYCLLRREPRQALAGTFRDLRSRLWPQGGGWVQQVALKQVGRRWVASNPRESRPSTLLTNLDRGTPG
Text: as §1
Radioligand binding assays for GPCR135 and GPCR142 were performed as previously described (Liu et al., 2003, Journal of Biological Chemistry, 278:50754-50764 and Liu et al., 2003, Journal of Biological Chemistry, 278:50765-50770). Membranes from COS-7 cells transiently transfected with either the GPCR135 expression vector or the GPCR142 expression vector, each described supra, were incubated with [^125I]-relaxin-3 at a final concentration 100 pM in 96-well plates. Peptides for competition binding studies were added to the binding mix (final volume: 200 μl) in binding buffer [50 mM Tris-HCl, pH 7.5, 5 mM EDTA, 1% bovine serum albumin, 0.1% protease inhibitor cocktails (Sigma)]. The binding mixtures were incubated at room temperature for 1 hour, filtered through GFC plates (Packard) pre-saturated with 0.3% Polyethylenimine (Sigma), and washed with cold washing buffer (50 mM Tris-HCl, pH 7.5, 5 mM EDTA). Microscint-40 was added to each well and the bound [^125I]-relaxin-3 was counted in a scintillation counter (TopCount/NTX, Packard).

GPCR135 = target: T3, GPCR135 (Homo sapiens, UniProt Q9NSD7); assay: as above; details: for binding / affinity for GPCR135, in words: highest concentration 1 μM
T3 construct: expressed in transfected cells
T3 sequence (Q9NSD7 1-469): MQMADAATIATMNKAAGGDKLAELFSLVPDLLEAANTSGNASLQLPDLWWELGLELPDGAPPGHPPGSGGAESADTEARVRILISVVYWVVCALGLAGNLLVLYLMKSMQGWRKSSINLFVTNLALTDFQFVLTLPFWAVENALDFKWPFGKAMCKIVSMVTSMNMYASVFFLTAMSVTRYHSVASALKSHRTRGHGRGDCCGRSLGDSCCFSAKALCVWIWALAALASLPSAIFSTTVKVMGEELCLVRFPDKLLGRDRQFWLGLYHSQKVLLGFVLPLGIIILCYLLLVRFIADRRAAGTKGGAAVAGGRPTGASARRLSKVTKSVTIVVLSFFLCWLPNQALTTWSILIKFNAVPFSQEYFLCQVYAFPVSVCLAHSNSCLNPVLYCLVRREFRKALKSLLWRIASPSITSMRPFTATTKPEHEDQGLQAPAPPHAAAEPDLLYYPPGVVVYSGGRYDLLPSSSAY
Method: For GPCR135, GPCR142, and LGR7, [^125I]-relaxin-3 was used as the radioligand at a final concentration of 100 pM. Different unlabeled peptides were used in the binding assay as the competitors. […] Different unlabeled peptides including relaxin-3 chimeras at various concentrations were added to the binding assay as the competitors.

T1 sequence (Q8WXD0 whole entry): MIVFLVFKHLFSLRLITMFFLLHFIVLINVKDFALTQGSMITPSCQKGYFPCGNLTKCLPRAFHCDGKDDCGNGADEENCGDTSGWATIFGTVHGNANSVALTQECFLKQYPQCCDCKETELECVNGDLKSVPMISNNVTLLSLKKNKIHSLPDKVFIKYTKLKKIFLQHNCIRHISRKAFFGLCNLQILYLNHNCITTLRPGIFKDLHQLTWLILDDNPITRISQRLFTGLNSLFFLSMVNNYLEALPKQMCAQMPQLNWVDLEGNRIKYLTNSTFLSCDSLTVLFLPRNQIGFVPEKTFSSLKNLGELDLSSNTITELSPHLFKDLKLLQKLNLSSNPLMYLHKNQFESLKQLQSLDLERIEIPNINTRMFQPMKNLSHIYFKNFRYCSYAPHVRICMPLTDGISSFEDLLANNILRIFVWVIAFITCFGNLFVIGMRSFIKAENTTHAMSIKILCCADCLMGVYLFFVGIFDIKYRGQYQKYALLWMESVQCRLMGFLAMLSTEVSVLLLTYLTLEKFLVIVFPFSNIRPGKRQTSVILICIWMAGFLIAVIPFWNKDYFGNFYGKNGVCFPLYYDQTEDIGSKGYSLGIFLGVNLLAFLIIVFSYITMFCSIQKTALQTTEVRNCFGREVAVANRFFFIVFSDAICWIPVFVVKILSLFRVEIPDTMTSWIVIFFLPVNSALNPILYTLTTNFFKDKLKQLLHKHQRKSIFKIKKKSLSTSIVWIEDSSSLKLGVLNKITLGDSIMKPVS

Substance	binding affinity for LGR8, in words (LGR8)	affinity for GPCR142 (GPCR142; discussion)	affinity for GPCR135 (GPCR135; discussion)	binding / affinity for GPCR142, in words (GPCR142)	binding / affinity for GPCR135, in words (GPCR135)
R3/I6: chimeric polypeptide: human relaxin-3 B-chain and INSL6 A-chain; mature polypeptide SEQ ID NO:24 (RAAPYGVRLCGREFIRAVIFTCGGSRWGYSEKCCLTGCTKEELSIAC; Human Relaxin-3/Insulin-like 6 chimeric mature polypeptide)	no binding affinity	10 to 15 nM	10 to 15 nM		
R3/I4: chimeric polypeptide: human relaxin-3 B-chain and INSL4 A-chain; mature polypeptide SEQ ID NO:22 (RAAPYGVRLCGREFIRAVIFTCGGSRWFDPFCCEVICDDGTSVKLC; Human Relaxin-3/Insulin-like 4 chimeric mature polypeptide)	no binding affinity			marginal binding at the highest concentration (1 μM)	marginal binding at the highest concentration (1 μM)
R3/I5: chimeric polypeptide: human relaxin-3 B-chain and INSL5 A-chain; mature polypeptide SEQ ID NO:23 (RAAPYGVRLCGREFIRAVIFTCGGSRWQDLQTLCCTDGCSMTDLSALC; Human Relaxin-3/Insulin-like 5 chimeric mature polypeptide)	no binding affinity			low nanomolar range	subnanomolar
